The results in this text go back to paper PMC9143278.

The experiment concerns the target human and murine IL-1R1 on HEK-Blue IL-1R cells (human and murine).

Regarding IL-1β(H30G)-Tag (ligand), the SEAP reporter (620 nm) in HEK-Blue IL-1R cells after overnight incubation; EC50 of a 3-fold dilution series from 100 ng/mL was 2.4.
The same measure, in the same setting: for IL-1β(N32G)-Tag (ligand) the value was 0.89; for IL-1β(Q15G)-Tag (ligand), 5.8; for IL-1β(R11G)-Tag (ligand), 2.7.
The same measure, in the same setting: for “IL-1β-Tag (His-TEV-muIL-1β-Tag, wild type) (from UniProt P10749 118-269) (ligand)” the value was 0.75.
“huIL-1β (commercial recombinant human IL-1β) (from UniProt P01584 117-269) (ligand)” displayed an SEAP reporter (620 nm) in HEK-Blue IL-1R cells after overnight incubation; EC50, positive control of 0.25.

B1: muIL-1β (commercial recombinant murine IL-1β) (ligand)
chain: VPIRQLHYRLRDEQQKSLVLSDPYELKALHLNGQNINQQVIFSMSFVQGEPSNDKIPVALGLKGKNLYLSCVMKDGTPTLQLESVDPKQYPKKKMEKRFVFNKIEVKSKVEFESAEFPNWYISTSQAEHKPVFLGNNSGQDIIDFTMESVSS
On to B1, for which the SEAP reporter (620 nm) in HEK-Blue IL-1R cells after overnight incubation; EC50, positive control is 0.21.
